Measured values reported in patent publication US20230071371A1 (Scripps Research, published 2023).
Like-named read-outs stand apart in the source and are kept apart here. Bridges are numbered along the chain shown (N, C = ends). Where no end group is shown, it is not given here. [ ]: non-standard residue; d: D form. staple K4 = not defined here; staple K5 = not defined here; L4A = not defined here; L5A = not defined here; K0 = not defined here; K4 = not defined here; K5 = not defined here; Aib = CC(C)(N)C(=O)O

T1: human GIPR (human, UniProt P48546 22-466)
T1 sequence (looked up): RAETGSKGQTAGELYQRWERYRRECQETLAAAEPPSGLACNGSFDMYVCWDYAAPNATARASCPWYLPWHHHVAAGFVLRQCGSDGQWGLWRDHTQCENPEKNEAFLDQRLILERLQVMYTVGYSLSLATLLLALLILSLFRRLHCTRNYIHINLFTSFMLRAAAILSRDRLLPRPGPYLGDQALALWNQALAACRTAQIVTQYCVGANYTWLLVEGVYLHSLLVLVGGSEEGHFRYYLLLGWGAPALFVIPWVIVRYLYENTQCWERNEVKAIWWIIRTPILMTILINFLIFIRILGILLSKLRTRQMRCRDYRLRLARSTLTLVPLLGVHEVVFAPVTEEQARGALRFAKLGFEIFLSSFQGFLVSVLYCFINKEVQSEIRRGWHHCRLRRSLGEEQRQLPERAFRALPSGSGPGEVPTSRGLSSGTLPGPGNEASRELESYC


How the values were obtained:
human GLP-1R [1] = target: T2, human GLP-1R (human, UniProt P43220 24-463)
Target sequence in this assay (P43220 24-463): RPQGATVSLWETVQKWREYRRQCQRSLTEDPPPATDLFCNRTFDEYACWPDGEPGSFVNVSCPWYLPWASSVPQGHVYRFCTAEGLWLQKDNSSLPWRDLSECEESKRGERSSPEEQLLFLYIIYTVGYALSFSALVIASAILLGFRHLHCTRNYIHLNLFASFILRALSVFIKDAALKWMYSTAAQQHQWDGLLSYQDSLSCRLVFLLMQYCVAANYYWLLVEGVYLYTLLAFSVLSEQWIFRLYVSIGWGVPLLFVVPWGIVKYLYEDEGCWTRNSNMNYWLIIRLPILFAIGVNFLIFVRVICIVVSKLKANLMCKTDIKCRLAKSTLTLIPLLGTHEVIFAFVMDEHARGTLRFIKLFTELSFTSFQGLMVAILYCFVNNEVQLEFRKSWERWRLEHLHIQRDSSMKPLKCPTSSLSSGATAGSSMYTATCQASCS

[2] = target: human serum albumin (human) (UniProt P02768); assay: calculated from the SPR affinity
rat serum albumin (rat) = rat serum albumin (rat) (UniProt P02770); assay: calculated from the SPR affinity
human GIPR [3] = target: T1, human GIPR
human GCGR (human) = human GCGR (human) (UniProt P47871); assay: cell-based or functional assay
human GLP-1R (human) = human GLP-1R (human) (UniProt P43220); assay: cell-based or functional assay
human GLP-1R [4] = target: T2, human GLP-1R; assay: cell-based or functional assay
human GCGR = human GCGR (human, UniProt P47871 26-477); assay: cell-based or functional assay
human GLP-1R [5] = target: T2, human GLP-1R; assay: cell-based or functional assay; remark: listed apart in the source
human GIPR [6] = target: T1, human GIPR; assay: cell-based or functional assay
human GLP-1R [7] = target: T2, human GLP-1R; assay: cell-based or functional assay; remark: listed apart in the source
human GIPR [8] = target: T1, human GIPR; assay: cell-based or functional assay; remark: listed apart in the source
human GLP-1R [9] = target: T2, human GLP-1R; assay: cell-based or functional assay; remark: listed apart in the source

Sequence of human GCGR (P47871 26-477): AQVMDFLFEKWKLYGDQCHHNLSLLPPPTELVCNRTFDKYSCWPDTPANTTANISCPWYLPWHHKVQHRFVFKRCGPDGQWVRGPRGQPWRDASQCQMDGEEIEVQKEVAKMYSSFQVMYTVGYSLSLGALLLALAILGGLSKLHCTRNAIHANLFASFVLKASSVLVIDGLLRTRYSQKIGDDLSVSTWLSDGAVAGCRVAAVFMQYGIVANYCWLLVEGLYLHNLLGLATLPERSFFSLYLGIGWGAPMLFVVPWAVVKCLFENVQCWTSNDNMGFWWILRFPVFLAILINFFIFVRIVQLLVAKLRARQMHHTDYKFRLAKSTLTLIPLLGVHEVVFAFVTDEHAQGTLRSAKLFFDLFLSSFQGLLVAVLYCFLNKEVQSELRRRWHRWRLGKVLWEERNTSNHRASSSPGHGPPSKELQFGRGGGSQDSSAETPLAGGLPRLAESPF
Sequence of human GCGR (human) (P47871 26-477): as above
Sequence of human GLP-1R (human) (P43220 24-463): as the sequence (P43220 24-463) above
Sequence of rat serum albumin (rat) (P02770 25-608 limits assumed): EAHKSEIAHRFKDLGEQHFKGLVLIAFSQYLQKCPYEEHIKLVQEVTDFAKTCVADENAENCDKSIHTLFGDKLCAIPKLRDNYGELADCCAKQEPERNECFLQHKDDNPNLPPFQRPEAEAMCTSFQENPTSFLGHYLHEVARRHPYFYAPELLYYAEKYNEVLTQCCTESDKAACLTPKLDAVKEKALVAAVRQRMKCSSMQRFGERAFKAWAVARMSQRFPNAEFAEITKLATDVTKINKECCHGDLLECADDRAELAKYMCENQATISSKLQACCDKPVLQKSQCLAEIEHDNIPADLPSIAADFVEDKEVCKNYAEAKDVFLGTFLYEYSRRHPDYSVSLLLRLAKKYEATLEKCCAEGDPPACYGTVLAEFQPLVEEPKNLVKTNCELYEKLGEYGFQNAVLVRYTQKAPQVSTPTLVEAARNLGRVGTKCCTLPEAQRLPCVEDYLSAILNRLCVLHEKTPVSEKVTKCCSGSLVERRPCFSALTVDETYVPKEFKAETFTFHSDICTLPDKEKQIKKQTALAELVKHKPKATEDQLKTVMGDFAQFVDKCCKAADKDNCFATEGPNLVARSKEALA
Sequence of human serum albumin (human) (P02768 25-609 limits assumed): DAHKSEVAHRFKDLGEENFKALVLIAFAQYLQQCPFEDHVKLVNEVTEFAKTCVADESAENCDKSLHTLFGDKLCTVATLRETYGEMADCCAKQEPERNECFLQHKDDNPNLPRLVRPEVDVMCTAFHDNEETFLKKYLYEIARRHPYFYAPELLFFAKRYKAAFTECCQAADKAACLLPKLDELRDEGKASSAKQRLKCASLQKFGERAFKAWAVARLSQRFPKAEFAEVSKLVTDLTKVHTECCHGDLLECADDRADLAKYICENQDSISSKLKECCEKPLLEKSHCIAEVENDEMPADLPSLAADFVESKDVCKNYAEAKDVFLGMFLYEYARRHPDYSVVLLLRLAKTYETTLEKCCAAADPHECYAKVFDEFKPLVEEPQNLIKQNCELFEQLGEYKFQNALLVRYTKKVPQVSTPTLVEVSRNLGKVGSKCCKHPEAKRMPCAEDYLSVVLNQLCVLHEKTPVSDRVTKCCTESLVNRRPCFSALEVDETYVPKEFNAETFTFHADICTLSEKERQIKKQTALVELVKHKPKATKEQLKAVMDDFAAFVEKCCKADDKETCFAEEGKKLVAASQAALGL

Molecule	EC50 cAMP 0% FBS (human GLP-1R [4])	EC50 cAMP 0% FBS (human GCGR)	EC50 Creluc (human GLP-1R [5])	EC50 Creluc (human GIPR [6])	other results
Tirzepatide (peptide)					EC50 (read off the curve), CRE-luciferase reporter, GLP1R-Creluc (human GLP-1R [1]): 0.2 nM
semaglutide (peptide)					fu (unbound fraction) [2]: 0.69%; fu (unbound fraction) (rat serum albumin (rat)): 3.3%
NNC0090-2746 (peptide)					EC50 (read off the curve), CRE-luciferase reporter, GIPR Creluc (human GIPR [3]): 0.008 nM
H[dS]QGTFTSDYSKYLDECAAKEFICWLLNGGPSSGAPPPS (linker 17-24 via L4A; ends not checked) [Conjugate 135]					EC50 cAMP 0% FBS (human GCGR (human)): 0.0068 nM; EC50 cAMP 0% FBS (human GLP-1R (human)): 0.0075 nM
H[dS]QGTFTSDYSKYLDECAAKEFICWLLNGGPSSGAPPPS (linker 17-24 via L5A; ends not checked) [Conjugate 138]					EC50 cAMP 0% FBS (human GCGR (human)): 1.42 nM; EC50 cAMP 0% FBS (human GLP-1R (human)): 0.908 nM
H[dS]QGTFTSDYSKYLDEKAAKEFIKWLLNGGPSSGAPPPS (linker 17-24 via K5; ends not checked) [Conjugate 121]	1.36 nM	2.54 nM			
H[dS]QGTFTSDYSKYLDEKAAKEFIKWLLNGGPSSGAPPPS (linker 17-24 via K4; ends not checked) [Conjugate 122]	0.0037 nM	0.07 nM			
H[dS]QGTFTSDYSKYLDEKAAKEFIKWLLRA (linker 17-24 via K4; reading uncertain) [Conjugate 123]	2.37 nM	0.451 nM			
H[dS]QGTFTSDYSKYLDEKAAKEFIKWLLNGGPSSGAPPPS (linker 17-24 via K0; ends not checked) [Conjugate 124]	0.049 nM	0.319 nM			
HXQGTFTSDYSKYLDEKAAKEFIKWLLNGRNRNNIA (staple K4 on Lys 17, 24; Aib 2) [Conjugate 125]	0.21 nM	0.626 nM			
HXQGTFTSDYSKYLDSKKAQEFVKWLLNGPSSGAPPPS (staple K4 on Lys 17, 24; Aib 2) [Conjugate 127]	0.148 nM	0.009 nM			
HXQGTFTSDYSKYLDKKAAKEFKQWLLNGPSSGAPPPS (staple K4 on Lys 16, 23; Aib 2) [Conjugate 128]	6.64 nM	16.2 nM			
HXQGTFTSDYSKYLDKKKAKEFKQWLLNXGRNRNNIA (staple K4 on Lys 16, 23; Aib 2, 29) [Conjugate 129]	31.1 nM	56 nM			
H[dS]QGTFTSDYSKYLDECAAKEFICWLLRA (linker 17-24 via L4A; reading uncertain) [Conjugate 136]	2.87 nM	0.559 nM			
H[dS]QGTFTSDYSKYLDECAAKEFICWLLRA (linker 17-24 via L5A; reading uncertain) [Conjugate 137]	2.02 nM	0.444 nM			
YXEGTFTSDYSIYKDKQAAXKFVNWLLAGGPSSGAPPPS (staple K5 on Lys 14, 21; Aib 2, 20) [Conjugate 141]			0.01 nM	0.02 nM	EC50 cAMP 0% FBS (human GLP-1R [7]): 0.022 nM; EC50 cAMP 0% FBS (human GIPR [8]): 0.0048 nM
Y[Aib]EGTFTSDYSIYKDKQAA[Aib]KFVNWLLAGGPSSGAPPPS (linker 14-21 via staple K4; reading uncertain) [Conjugate 142]			0.02 nM	0.02 nM	EC50 cAMP 0% FBS (human GIPR [8]): 0.008 nM
Y[Aib]EGTFHSDYDIYKDKQAA[Aib]KFVQWLLAGGPSSGAPPPS (linker 14-21 via staple K4; reading uncertain) [Conjugate 165]			13.8 nM	5.31 nM	
Y[Aib]EGTFHSDYDIYKDKQAA[Aib]KFVQWLLAGGPSSGAPPPS (linker 14-21 via staple K5; reading uncertain) [Conjugate 166]			83.9 nM	12.6 nM	
YXEGTFHSDYDIYKDKQAALKFVAWLLAGGPSSGAPPPS (staple K4 on Lys 14, 21; Aib 2; Nle 20) [Conjugate 167]			18.8 nM	20.4 nM	
YXEGTFHSDYDIYKDKQAALKFVAWLLAGGPSSGAPPPS (staple K5 on Lys 14, 21; Aib 2; Nle 20) [Conjugate 168]			> 1000 nM	303 nM	
YXEGTFTSDYSIYKDKQAALKFVAWLLAGGPSSGAPPPS (staple K4 on Lys 14, 21; Aib 2; D-Ser 8, 11; Nle 20) [Conjugate 169]			1.32 nM	11.3 nM	
YXEGTFTSDYSIYKDKQAALKFVAWLLAGGPSSGAPPPS (staple K5 on Lys 14, 21; Aib 2; D-Ser 8, 11; Nle 20) [Conjugate 170]			3.74 nM	15.7 nM	
HXEGTFTSDVSSYLEGKAAKEFIKWLVKGRG (staple K5 on Lys 17, 24; Aib 2; C-terminal -OH) [Conjugate 181]					EC50 cAMP 0% FBS (human GLP-1R [9]): 0.026 nM
H[Aib]EGTFTSDVSSYLEGCAAKEFICWLVKGRG-OH (linker 17-24 via L5A; reading uncertain) [Conjugate 186]					EC50 Cre-Luc (human GLP-1R [9]): 7.3 nM
